According to article PMC3772951 (PLoS ONE, 2013):

Assays:
[1] = target: T1, A subunit of Enterococcus hirae V-ATPase, wild type (Enterococcus hirae, UniProt Q08636 1-593); assay: native gel or EMSA; purified A3B3 and DF complexes mixed in a 1:5 molar ratio, 1 h on ice; formation of A3B3DF (V1) confirmed by basic native-PAGE; settings: both partners purified
T1 construct: A subunit of Enterococcus hirae V-ATPase; synthetic gene with E. coli codon usage in pET23d; also called A monomer; source: E. coli BL21 (DE3), purified
T1 sequence (looked up): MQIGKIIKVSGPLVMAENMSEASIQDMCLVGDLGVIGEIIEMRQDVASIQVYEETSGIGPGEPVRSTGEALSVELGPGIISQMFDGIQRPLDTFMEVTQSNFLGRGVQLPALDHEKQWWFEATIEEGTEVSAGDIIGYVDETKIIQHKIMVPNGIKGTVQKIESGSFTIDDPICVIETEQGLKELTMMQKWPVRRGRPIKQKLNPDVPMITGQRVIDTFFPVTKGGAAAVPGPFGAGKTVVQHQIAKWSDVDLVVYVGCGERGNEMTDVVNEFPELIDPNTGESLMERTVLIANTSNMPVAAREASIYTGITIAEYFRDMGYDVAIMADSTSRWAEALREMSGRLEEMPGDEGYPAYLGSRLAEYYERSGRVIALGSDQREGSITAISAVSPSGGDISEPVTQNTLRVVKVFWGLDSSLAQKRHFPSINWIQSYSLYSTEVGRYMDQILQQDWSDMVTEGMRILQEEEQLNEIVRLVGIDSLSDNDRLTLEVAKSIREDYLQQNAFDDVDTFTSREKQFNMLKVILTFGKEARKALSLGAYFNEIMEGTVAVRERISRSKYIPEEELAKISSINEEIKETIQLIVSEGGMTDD

[2] = target: T2, B subunit of Enterococcus hirae V-ATPase, wild type (Enterococcus hirae, UniProt Q08637 1-458); assay: as above; settings: both partners purified
T2 construct: B subunit of Enterococcus hirae V-ATPase; synthetic gene with E. coli codon usage in pET23d; also called B monomer; source: E. coli BL21 (DE3), purified
T2 sequence (looked up): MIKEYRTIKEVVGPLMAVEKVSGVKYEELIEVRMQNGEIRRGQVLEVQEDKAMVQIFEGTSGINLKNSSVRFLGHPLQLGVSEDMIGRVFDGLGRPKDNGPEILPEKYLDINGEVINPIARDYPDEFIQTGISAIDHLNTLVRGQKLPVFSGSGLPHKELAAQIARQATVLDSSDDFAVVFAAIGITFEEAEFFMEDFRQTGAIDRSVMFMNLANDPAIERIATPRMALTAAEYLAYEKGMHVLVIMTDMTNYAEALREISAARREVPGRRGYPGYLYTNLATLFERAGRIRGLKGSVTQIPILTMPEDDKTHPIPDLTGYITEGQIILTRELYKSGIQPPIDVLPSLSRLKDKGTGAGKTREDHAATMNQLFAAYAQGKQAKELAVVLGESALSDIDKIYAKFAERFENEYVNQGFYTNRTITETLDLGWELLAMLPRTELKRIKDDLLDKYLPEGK

B1: D subunit of Enterococcus hirae V-ATPase, wild type (natural protein, UniProt P43435 1-210, looked up)
chain: MRLNVNPTRMELTRLKKQLTTATRGHKLLKDKQDELMRQFILLIRKNNELRQAIEKETQTAMKDFVLAKSTVEEAFIDELLALPAENVSISVVEKNIMSVKVPLMNFQYDETLNETPLEYGYLHSNAELDRSIDGFTQLLPKLLKLAEVEKTCQLMAEEIEKTRRRVNALEYMTIPQLEETIYYIKMKLEENERAEVTRLIKVKNMGTEE
notes: D subunit of Enterococcus hirae V-ATPase; Was never handled alone; stands here for the pairs of subunits inside the DF and A3B3DF complexes; source: E. coli cell-free protein expression system, synthesized together with F, purified
[1]
  binding result: binds
[2]
  binding result: binds
